Assay results as given in publication PMC9800333, “Determinants of receptor tyrosine phosphatase homophilic adhesion: Structural comparison of PTPRK and PTPRM extracellular domains” (The Journal of Biological Chemistry, 2022).

Molecular target: the molecule itself
Assay: SEC-MALS; pH 8: 100 ul at 1 mg/ml on Superdex 200 Increase 10/300 GL in 100 mM Tris-HCl, pH 8, 250 mM NaCl; protein conjugate analysis for glycans; dimer to monomers

| Protein | stoichiometry N | binding result |
| --- | --- | --- |
| full-length PTPRK extracellular domain (domain or fragment, human, UniProt Q15262-3 28-752, looked up, native N-linked glycans (no deglycosylation), human PTPRK, full extracellular domain (MAM, Ig, FN1-4), residues 28-752; numbers count on: UniProt Q15262-3; Cloned into pHLSec (AgeI/KpnI) in frame with the vector's N-terminal secretion signal; The C-terminal His6 tag was included in the SAXS models; also called PTPRK-ECD; PTPRK full ECD; not shown: Lys-His6, C-terminal, kept) QGQFSAGGCTFDDGPGACDYHQDLYDDFEWVHVSAQEPHYLPPEMPQGSYMIVDSSDHDPGEKARLQLPTMKENDTHCIDFSYLLYSQKGLNPGTLNILVRVNKGPLANPIWNVTGFTGRDWLRAELAVSTFWPNEYQVIFEAEVSGGRSGYIAIDDIQVLSYPCDKSPHFLRLGDVEVNAGQNATFQCIATGRDAVHNKLWLQRRNGEDIPVAQTKNINHRRFAASFRLQEVTKTDQDLYRCVTQSERGSGVSNFAQLIVREPPRPIAPPQLLGVGPTYLLIQLNANSIIGDGPIILKEVEYRMTSGSWTETHAVNAPTYKLWHLDPDTEYEIRVLLTRPGEGGTGLPGPPLITRTKCAEPMRTPKTLKIAEIQARRIAVDWESLGYNITRCHTFNVTICYHYFRGHNESKADCLDMDPKAPQHVVNHLPPYTNVSLKMILTNPEGRKESEETIIQTDEDVPGPVPVKSLQGTSFENKIFLNWKEPLDPNGIITQYEISYSSIRSFDPAVPVAGPPQTVSNLWNSTHHVFMHLHPGTTYQFFIRASTVKGFGPATAINVTTNISAPTLPDYEGVDASLNETATTITVLLRPAQAKGAPISAYQIVVEELHPHRTKREAGAMECYQVPVTYQNAMSGGAPYYFAAELPPGNLPEPAPFTVGDNRTYQGFWNPPLAPRKGYNIYFQAMSSVEKETKTQCVRIATKAAATEEPEVIPDPAKQTDRVV | 2 | – |
| PTPRK MAM-Ig-FN1 domains (domain or fragment, human, UniProt Q15262-3 28-385, looked up, native N-linked glycans (no deglycosylation); glycans seen in the structure at N101, N140 and N211, human PTPRK, N-terminal MAM, Ig and first FN domains, residues 28-385; numbers count on: UniProt Q15262-3; Cloned into pHLSec (AgeI/KpnI) in frame with the vector's N-terminal secretion signal; also called PTPRK-MIFN1; MIFN1) QGQFSAGGCTFDDGPGACDYHQDLYDDFEWVHVSAQEPHYLPPEMPQGSYMIVDSSDHDPGEKARLQLPTMKENDTHCIDFSYLLYSQKGLNPGTLNILVRVNKGPLANPIWNVTGFTGRDWLRAELAVSTFWPNEYQVIFEAEVSGGRSGYIAIDDIQVLSYPCDKSPHFLRLGDVEVNAGQNATFQCIATGRDAVHNKLWLQRRNGEDIPVAQTKNINHRRFAASFRLQEVTKTDQDLYRCVTQSERGSGVSNFAQLIVREPPRPIAPPQLLGVGPTYLLIQLNANSIIGDGPIILKEVEYRMTSGSWTETHAVNAPTYKLWHLDPDTEYEIRVLLTRPGEGGTGLPGPPLITRTK | 2 | – |
| PTPRK-MIFN1.W351G (domain or fragment, human, UniProt Q15262-3 28-385, looked up, human PTPRK, MAM-Ig-FN1 domains, residues 28-385, with W351G; numbers count on: UniProt Q15262-3; PDB 8A1F is the wild-type parent; also called W315G mutant form of PTPRK-MIFN1; source: expressed and purified (as PTPRK-MIFN1: human embryonic kidney-293F cells, nickel-nitrilotriacetic acid agarose, SEC)) QGQFSAGGCTFDDGPGACDYHQDLYDDFEWVHVSAQEPHYLPPEMPQGSYMIVDSSDHDPGEKARLQLPTMKENDTHCIDFSYLLYSQKGLNPGTLNILVRVNKGPLANPIWNVTGFTGRDWLRAELAVSTFWPNEYQVIFEAEVSGGRSGYIAIDDIQVLSYPCDKSPHFLRLGDVEVNAGQNATFQCIATGRDAVHNKLWLQRRNGEDIPVAQTKNINHRRFAASFRLQEVTKTDQDLYRCVTQSERGSGVSNFAQLIVREPPRPIAPPQLLGVGPTYLLIQLNANSIIGDGPIILKEVEYRMTSGSWTETHAVNAPTYKLGHLDPDTEYEIRVLLTRPGEGGTGLPGPPLITRTK | – | binds |
